Test results taken from the nanobody polyreactivity screen of Harvey et al. (2022).

assay: yeast display, Sf9 membrane polyspecificity reagent, FACS + sequencing; frameworks hold sequencing errors
Summary of the method: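 A nanobody's polyreactivity label depends on the gate it was sorted from. Yeast display cells were stained with 10% biotinylated, detergent-solubilized Sf9 membrane reagent for 1 hour at 4 °C, enriched on streptavidin microbeads and sorted by FACS. The low and high (top ~1%) gates were set on anti-HA fluorescence for expression and streptavidin fluorescence for reagent binding.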

Row | Sequence | polyreactivity (PSR sort gate)
1 | QVQLVESGGGLVQAGGSLRLSCAASGITFYGYTIGWYRQAPGKERELVATITRGGSTYYADSVKGRFTISLDNAKNTVYLQMNSLKPEDTAGYYCAAESQYDYGVEFDYWGQGTQVTVSS | low polyreactivity
2 | QVQLVESGGGLVQAGGSLRLSCAASGITFYGYTMGWYRQAPGKERELVAAITYFGSTYYADSVKGRFTISRDNAKNTVYLQMNSLKPEDTAVYYCAAQRFRSGWFGYWGQGTQVTVSS | high polyreactivity
3 | QVQLVESGGGLVQAGGSLRLSCAASGITFYHYAMGWYRQAPGKERELVAAITRSGGRTYYADSVKGRFTISRDNAKNTVFLQMNSLKPEDTAVYYCATDDRQGYFRSPREYDYWGQGTQVTVSS | high polyreactivity
4 | QVQLVESGGGLVQAGGSLRLSCAASGITFYKNAMGWYRQAPGKERELVAAISSGGGTTYADSVKGRFTISRDNAKNTVYLQMNSLKPEDTAVYYCAADRRYYWYNYWGLGTQVTVSS | high polyreactivity
5 | QVQLVESGGGLVQAGGSLRLSCAASGITFYKYVMGWYRQAPGKERELVAAISSVGSTYYADSVKGRFTISRDNAKNTVYLQMNSLKPEDTAVYYCNARVYYSTTRYYVRVDYWGQGTQVTVSS | high polyreactivity
6 | QVQLVESGGGLVQAGGSLRLSCAASGITFYKYVMGWYRQAPGKETELVAAISSVGSTYYADSVKGRFTISRDNAKNTVYLQMNSLKPEDTAVYYCAAKYWKCYHYGFGYWGQGTQVTVSS | high polyreactivity
7 | QVQLVESGGGLVQAGGSLRLSCAASGITFYLNAMVWYRQAPGKERELVADITVSGGSTYYADSVKGRFTISRDYAKNTVYLQMNRLKPEDTAVYYCAADLTISYSQEYYYWGQGTQVTVSS | low polyreactivity
8 | QVQLVESGGGLVQAGGSLRLSCAASGITFYPYAMGWYRQAPGKERELVAAITGSGGRTYYADSVKGRFTISRDNAKNTVYLQMNSLKPEDTAVYYCAKVARYPDMGYWGQGTQVTVSS | high polyreactivity
9 | QVQLVESGGGLVQAGGSLRLSCAASGITFYPYAMGWYRQAPGKERELVASISWSGGSTYYADSVKGRFTISRDNAKNTVYLQMNSLKPEDTAVFYCNAEYWLPYYPDYDYWGQGTQVTVSS | low polyreactivity
10 | QVQLVESGGGLVQAGGSLRLSCAASGITFYRNAMGSYRQAPGKERELVADIDVGDGTYYADSVKGRFTISRDNCKNTVYLQMNSLKPEDTAVYYCNKTFLFLEYDSWGQGTQVTVSS | low polyreactivity
11 | QVQLVESGGGLVQAGGSLRLSCAASGITFYRYAMGWSRQAPGKERELVAAITWSGGSTYYADSVKGRFTISRDNAKNTVYLQMNSLKPEDTAVYYCAAVLYSPDFFGNYDYWGQGTQVTVSS | low polyreactivity
12 | QVQLVESGGGLVQAGGSLRLSCAASGITFYRYAMGWYREAPGKERELVAAISRSGGGTHYADTVKGRFTISRDNAMNTVYLQMYCLKPEDTAVFYCAASAYSYDYWGQGNQVTVSS | high polyreactivity
13 | QVQLVESGGGLVQAGGSLRLSCAASGITFYRYAMGWYRQAPGKERELVAAITWSGGSTYYADSVKGRFTISRDNAKNTVYLQMNSLKPEDTAVYYCAVDYTPEDWGDDYWGQGTQVTVSS | low polyreactivity
14 | QVQLVESGGGLVQAGGSLRLSCAASGITFYRYAMGWYRQSPGKETQLVAAIRRAGSTYYADSVKGRFTISRDNAKNTVYLQMNSLKPEDTAVYYCAAPYRLEPLSTHGSWGQGTQVTVSS | high polyreactivity
15 | QVQLVESGGGLVQAGGSLRLSCAASGITFYRYAMRWYRQAPGKERELVAAISRSGGSTYYADSVKGRFTISRDNAKNTVYLQMNILKPEDTAVYYCAAYILGNRDGYDYWGQGTQVTVSS | high polyreactivity
16 | QVQLVESGGGLVQAGGSLRLSCAASGITFYRYTMGWYRQAPGKERELVAAITWSGGSTYYADSVKGRFTISRDNAKNTVYLQMNSLKPEDTAVYYCAVYLPYSQRYVHYYYWGQGTQVTVSS | high polyreactivity
17 | QVQLVESGGGLVQAGGSLRLSCAASGITFYVYAMGWSRQAPGKEREFVAAISTRDGTTYAYSVKGRFTISRDNAKNTVYLQMNSLKPEDTAVYYCAAAYYYDGQQGDFDYWGQGSQVTVSS | low polyreactivity
18 | QVQLVESGGGLVQAGGSLRLSCAASGITFYVYTMGWYRQAPGKERELVAAINGSGGSTNYADSVKGRFPISRDNAKNTVYLQMNSLKPDDTAVYYCAADWSLSLYDYWGQGTQVSVSS | low polyreactivity
19 | QVQLVESGGGLVQAGGSLRLSCAASGITFYWYTMGLYRQAPGKERELVAAISSRGSSTRYADSVKGRFTISRDNAKNTVYLQMNSLKPEDTAVYYCAADDLSDGYYDEAYEDNYWGQGTQVTVSS | low polyreactivity
20 | QVQLVESGGGLVQAGGSLRLSCAASGITFYWYTMGWYRQAPGKERELVADIDGDGGSTYYAVSVKGRFTISRDNAKNTVYLLMNSVKPEDTGVYFCAAQVWPWGYDYWGQGTQVTVSS | high polyreactivity
21 | QVQLVESGGGLVQAGGSLRLSCAASGITFYYNAMGWYRQAPGKERELVAAISDGSSTNYADSVKGRFTISRDTAKNTVYLQMNSLKPEDTAVYYCNADLVLFPLTWPYYYWGQGTQVTVSS | low polyreactivity
22 | QVQLVESGGGLVQAGGSLRLSCAASGITFYYNDMGWYRQAPGKERELVAAISSGGTTNYADSVKGRFTISRDNAKNTVYLQMNSLKPEDTAVYYCATGYAEPEWYPFVSDYDYWGQGTQVTVSS | low polyreactivity

Row | Sequence | polyreactivity (PSR sort gate)
23 | QVQLVESGGGLVQAGGSLRLSCAASGITFYYYAMGWYRQAPGKLRELVARINSGGSTNYADSVKGRFTISRDNAKNTVYLQMNSLKPEDTAVYYCNAKFRFGTYKTPYDYWGQGTQVTVSS | low polyreactivity
24 | QVQLVESGGGLVQAGGSLRLSCAASGITFYYYAMGWYRQEPGKERELVAAINWSGTSTYYADSVKGRFTISRDNAKNTVYLQMNSLKPEDTAVYYCNAERGRSFWWAYDYWGQGTQVTVSS | low polyreactivity
25 | QVQLVESGGGLVQAGGSLRLSCAASGITFYYYGMGWYRQATGKERELVAAISTGGNTNYADSVKGRFTISRDNAKNTVYLQMNSLKPEDTAVYYCAASFASKYEYWGQGTQVTVSS | high polyreactivity
26 | QVQLVESGGGLVQAGGSLRLSCAASGITFYYYVMGWYRQAPGKERELVAAIDSGDSTYYADSVKGRFTISRDNAKNTVYLQMNSLKPEDTAVYYCAVDYEADNELNGPDQEYGRDSWGQGTQVTVSS | low polyreactivity
27 | QVQLVESGGGLVQAGGSLRLSCAASGITIRPYTMGWYRQAPGKERELVARISRRGGSTYYADSVKGRFTISRDNAKNTVYLQMNSLKPEDTAVYYCATRSRAHISPYDYWGQGTQVTVSS | high polyreactivity
28 | QVQLVESGGGLVQAGGSLRLSCAASGITISGYAMGWYRQAPGKERELVAAISRRGGSTYYADSVKGRFTISRDNAKNTVYLQMNSLKPEDTAVYYCARYPSRNYNYWGQGTQVTVSS | high polyreactivity
29 | QVQLVESGGGLVQAGGSLRLSCAASGITIVNYVMGWYRQAPGKERELVAAISIGGGTYYADSVKGRFTISRDNAKNTVYLQMNSLKPEDTAVYYCNASYGGLSFYIGVYVTGYYYWGQGTQVTVSS | low polyreactivity
30 | QVQLVESGGGLVQAGGSLRLSCAASGITLAYNAMGLYRQAPGTEREFVAAIDVCGGRTYYADSVKGRFTISRDNAKNTVYLQMNSLKPEDTAVYYCAAADIIDHSFPYDYWGQGTQVTVSS | low polyreactivity
31 | QVQLVESGGGLVQAGGSLRLSCAASGITLFYYAMGWYRQAPGKERELVAVISASGGSTYYADSVKGRFTISRDNAKNTVYIQMNSLKPEDTAVYYCAAVAYWRSSSWYYYWGQGTQVTVSS | high polyreactivity
32 | QVQLVESGGGLVQAGGSLRLSCAASGITLGRYAMGWYRQAPGQERELVAAISSWSGGSTTYADSVKGRFTISRDNAKNTVYLQMNSLKPEDTAVYYCNARRYYGRYYLGHSDYDYWGQGTQVTVSS | high polyreactivity
33 | QVQLVESGGGLVQAGGSLRLSCAASGITLGYYAMGWYRQAPGKERELVAAISYSSGSTYYADSVKGRFTIARDTAKNTVYLQMNSLKPEDTAVYYCAKYVTYYLPTYSPSGKHDYWGQVTQVTVSS | low polyreactivity
34 | QVQLVESGGGLVQAGGSLRLSCAASGITLINYAMGWYRQAPGKERELVAAISTSGSSTYYADSVKGRFTISRDNAKNTVYLQMNSLKPEDTAVYYCAAELDVYSLFGYWGQGTQVTVSS | low polyreactivity
35 | QVQLVESGGGLVQAGGSLRLSCAASGITLLYNAMGWYRQAPGKERELVAGITGRGGSTYYADSVKGRFTISRDNAKNTVSLQMNSLKPEDNAVYYCAATTDYRYVGRIVIRDDHWGQGTQVTVSS | low polyreactivity
36 | QVQLVESGGGLVQAGGSLRLSCAASGITLLYYAMGWYRQAPGKERELVAAISRRGGSTYYADSVKGRFTISRDNAKNTVYLQMNSLKPEDTAVYYCAAYSPYGGYHYLYDYWGQGTQVTVSS | high polyreactivity
37 | QVQLVESGGGLVQAGGSLRLSCAASGITLNRNAMGWYKQAPGKERELVARISRRGGTTYYADSVKGRFTISRDNAKNTVYLQLNSLKPEDSAVYYCAKVRRRWGYPSYSYPYGYWGQGTQVTVSS | high polyreactivity
38 | QVQLVESGGGLVQAGGSLRLSCAASGITLQFYAIGWYRQAPGKERELVAAISISGGRTYYADSVKGRFTISRDNAKNTVYLQMNSLKPEDTAVYYCAAYLQRAYRYGYWGQGTQVTVSS | high polyreactivity
39 | QVQLVESGGGLVQAGGSLRLSCAASGITLRRYAMGWYRQAPGKDRELVDVISVSGGRTHYADSVKGRFTISRDNAKNSVYLQMNSLNPEDTAVYYGAAHFSYRYYTDEVGYWGQGTQVTVSS | high polyreactivity
40 | QVQLVESGGGLVQAGGSLRLSCAASGITLSANAMGWYRQAPGKERELVATITWSGGSTYYADSVKGRFTISRDNAKNTVYLQMNSLKPEDTAVYYCNARSYDEYPYYSYNYWGQGTQVTVSS | low polyreactivity
41 | QVQLVESGGGLVQAGGSLRLSCAASGITLSWYAMGWSRQAPGKERELVAGISGRGGRTYYADSVKGRFTISRDNAKNTVYLQMNSLKPEDTAVYYCAADCPGYRSYDYWGQGTQVTVSS | high polyreactivity
42 | QVQLVESGGGLVQAGGSLRLSCAASGITLTIYVMGWYRQAPGKEREFVAAISKSGGSTYYADSVKGRFTISRDNAKNTVYLQMNSLKPEDTAVYYCAADVILYDFADYYVIYDYWGQGTQVTVSS | high polyreactivity
43 | QVQLVESGGGLVQAGGSLRLSCAASGITLTKNAMGWYSQAPGKERELVAGITRGSRTNYADSVKGRFTISRDNAKNTVYLQMNSLKPEDTAVYYCAASYWPYRGPVGGSKMYYWGQGTQVTVSS | high polyreactivity
